This note sets out measurements from patent publication US5770623A, “Argine antagonists for inhibition of systemic hypotension associated with nitric oxide production or endothelial derived relaxing factor” (Board of Regents, The University of Texas System, priority 1995, dated 1998).

The test relates to murine brain endothelial cells (MBEC). Description: Nitrite production by MBEC exposed to cytokines / immunomodulators (Griess assay). It counts as cell-based. Conditions: IFN 100 U/ml, TNF 500 U/ml, IL-1 10 U/ml, endotoxin 1 μg/ml; 48 hours.

Protocol: Endothelial cells--MBEC's were isolated from murine brain microvessels and cultured on gelatin-coated tissue culture dishes in DME/F12 media supplemented with 2% PPPHS, 5% FBS (Hyolone), 50 μg/ml ECGF (Biomed Tech), and 10 U/ml heparin (Sigma) as previously described (Belloni et al. 1989). The endothelial derivation of MBEC's was determined by the presence of a non-thrombogenic surface to platelets and immunofluorescent staining for Factor VIII related antigen. MBEC's were used between passage 6-9 for all experiments.
Nitrite Assay--MBE cells were cultured on gelatin-coated well plates (Corning) in 100 μl of culture medium and treated with cytokines at 3 days post-confluence. After 48 hours, nitrite production was determined by a colorimetric assay. […] All treatments were performed in triplicate and data presented as the mean value±standard deviation.

B1: IFN: recombinant murine gamma-interferon (protein, UniProt P01580 23-155, looked up)
Interferon gamma: HGTVIESLESLNNYFNSSGIDVEEKSLFLDIWRNWQKDGDMKILQSQIISFYLRLFEVLKDNQAISNNISVIESHLITTFFSNSKAKKDAFMSIAKFEVNNPQVQRQAFNELIRVVHQLLPESSLRKRKRSRC
Take B1: the “effect on nitrite production by MBEC” value is “no effect”.
